{
  "source": "paper PMC3627579",
  "binders": {"B1": {"name": "miR-155/miR-155* (dsRNA)", "RNA 1": "GGAAUGCUAAUCGUGAUAGGCCU", "RNA 2": "GGCCUACAUAUUAGCAUUCCCA"}, "B2": {"name": "pre-miR-155 (structured_RNA)", "RNA": "GGAAUGCUAAUCGUGAUAGGGGUUUUUGCCUCCAACUGACUCCUACAUAUUAGCAUUCCCA"}},
  "test_in_all_cases": "ITC",
  "key": {"TRBP-D12 [1]": {"target": "T1, TRBP-D12 (Homo sapiens, UniProt Q15633 19-228)", "T1 sequence": "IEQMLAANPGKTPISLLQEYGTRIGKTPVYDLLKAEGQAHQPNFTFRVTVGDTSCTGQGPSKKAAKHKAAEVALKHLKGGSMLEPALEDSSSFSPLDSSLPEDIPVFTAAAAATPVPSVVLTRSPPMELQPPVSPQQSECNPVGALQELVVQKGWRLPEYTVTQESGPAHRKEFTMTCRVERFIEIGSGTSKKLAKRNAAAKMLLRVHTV"}, "TRBP-D2": {"target": "T2, TRBP-D2 (Homo sapiens, UniProt Q15633 157-228)", "T2 sequence": "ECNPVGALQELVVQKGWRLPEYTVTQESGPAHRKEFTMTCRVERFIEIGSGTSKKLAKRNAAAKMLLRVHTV"}, "TRBP-D1": {"target": "T3, TRBP-D1 (Homo sapiens, UniProt Q15633 19-99)", "T3 sequence": "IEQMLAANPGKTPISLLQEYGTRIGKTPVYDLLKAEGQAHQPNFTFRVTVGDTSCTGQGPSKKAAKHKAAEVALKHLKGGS"}, "TRBP-D12 [2]": {"target": "T1, TRBP-D12", "remark": "listed apart in the source"}},
  "note": "Like-named read-outs stand apart in the source and are kept apart here.",
  "data": [
    {"binder": "B1", "values": [
      {"measurement": "Kd", "setting": "TRBP-D12 [1]", "result": "1000 ± 700", "unit": "nM"}
    ]},
    {"binder": "B2", "values": [
      {"measurement": "Kd", "setting": "TRBP-D2", "result": "3700 ± 500", "unit": "nM"},
      {"measurement": "Kd", "setting": "TRBP-D1", "result": "15400 ± 800", "unit": "nM"},
      {"measurement": "Kd", "setting": "TRBP-D12 [2]", "result": 500, "unit": "nM"}
    ]}
  ]
}
